{"source": "patent US20090197812", "proteins": {"B1": {"name": "transglutaminase (guinea pig liver, Sigma) (protein)", "chain": "AEDLILERCDLQLEVNGRDHRTADLCRERLVLRRGQPFWLTLHFEGRGYEAGVDTLTFNAVTGPDPSEEAGTMARFSLSSAVEGGTWSASAVDQQDSTVSLLLSTPADAPIGLYRLSLEASTGYQGSSFVLGHFILLYNPRCPADAVYMDSDQERQEYVLTQQGFIYQGSAKFINGIPWNFGQFEDGILDICLMLLDTNPKFLKNAGQDCSRRSRPVYVGRVVSAMVNCNDDQGVLQGRWDNNYSDGVSPMSWIGSVDILRRWKDYGCQRVKYGQCWVFAAVACTVLRCLGIPTRVVTNFNSAHDQNSNLLIEYFRNESGEIEGNKSEMIWNFHCWVESWMTRPDLEPGYEGWQALDPTPQEKSEGTYCCGPVPVRAIKEGHLNVKYDAPFVFAEVNADVVNWIRQKDGSLRKSINHLVVGLKISTKSVGRDEREDITHTYKYPEGSEEEREAFVRANHLNKLATKEEAQEETGVAMRIRVGQNMTMGSDFDIFAYITNGTAESHECQLLLCARIVSYNGVLGPVCSTNDLLNLTLDPFSENSIPLHILYEKYGDYLTESNLIKVRGLLIEPAANSYVLAERDIYLENPEIKIRVLGEPKQNRKLIAEVSLKNPLPVPLLGCIFTVEGAGLTKDQKSVEVPDPVEAGEQAKVRVDLLPTEVGLHKLVVNFECDKLKAVKGYRNVIIGPA"}}, "key": {"[1]": {"target": "mutant I-κBα, the phosphorylation sites of which were modified"}, "Human I-κBα": {"target": "T1, Human I-κBα", "T1 chain": "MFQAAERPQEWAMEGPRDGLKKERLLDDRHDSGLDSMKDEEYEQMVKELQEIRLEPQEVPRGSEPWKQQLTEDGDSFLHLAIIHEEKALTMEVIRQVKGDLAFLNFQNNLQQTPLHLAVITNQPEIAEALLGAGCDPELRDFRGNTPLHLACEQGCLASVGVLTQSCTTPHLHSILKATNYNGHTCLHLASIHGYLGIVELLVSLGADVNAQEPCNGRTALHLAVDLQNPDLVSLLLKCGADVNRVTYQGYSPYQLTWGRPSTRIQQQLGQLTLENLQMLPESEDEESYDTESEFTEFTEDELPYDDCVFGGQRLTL"}}, "data": [{"protein": "B1", "values": [{"measurement": "polymerization of I-κβα on 4-12% NuPAGE", "setting": "[1]", "value": "both the intact I-κBα and the mutant I-κBα, the phosphorylation sites of which were modified, were polymerized to high-molecular weight polymers, by transglutaminase"}, {"measurement": "polymerization of I-κβα on 4-12% NuPAGE", "setting": "Human I-κBα", "value": "both the intact I-κBα and the mutant I-κBα, the phosphorylation sites of which were modified, were polymerized to high-molecular weight polymers, by transglutaminase"}]}]}
